Measurements as given in patent US20130005646A1 (Novo Nordisk, published 2013).
Starred links: 1 amine or outer side, 2 acyl side, 3 side chain; linkers in the order of their positions; H or OH if unused. Positions of bridges follow the written chain, without caps; N, C: chain ends. Non-standard residues stand in square brackets, D forms with d. *: point of attachment. C20 diacid = O=C(O)CCCCCCCCCCCCCCCCCCC(=O)*; C18 diacid = O=C(O)CCCCCCCCCCCCCCCCC(=O)*; γGlu = O=C(O)[C@H](CCC(=O)[*:2])N[*:1]; Orn = NCCC[C@H](N)C(=O)O; AEEA = NCCOCCOCC(=O)O

B1: N-alpha-[(S)-4-Carboxy-4-(19-carboxynonadecanoylamino)butyryl]-[Glu14,His35]-pramlintide (peptide)
peptide: {C20 diacid-γGlu}-KCNTATCATQRLAEFLVHSSNNFGPILPPTNVGSHTY-NH2
modifications: disulfide 2-7
SMILES: CC[C@H](C)[C@H](NC(=O)[C@@H]1CCCN1C(=O)CNC(=O)[C@H](Cc1ccccc1)NC(=O)[C@H](CC(N)=O)NC(=O)[C@H](CC(N)=O)NC(=O)[C@H](CO)NC(=O)[C@H](CO)NC(=O)[C@H](Cc1c[nH]cn1)NC(=O)[C@@H](NC(=O)[C@H](CC(C)C)NC(=O)[C@H](Cc1ccccc1)NC(=O)[C@H](CCC(=O)O)NC(=O)[C@H](C)NC(=O)[C@H](CC(C)C)NC(=O)[C@H](CCCNC(=N)N)NC(=O)[C@H](CCC(N)=O)NC(=O)[C@@H](NC(=O)[C@H](C)NC(=O)[C@@H]1CSSC[C@H](NC(=O)[C@H](CCCCN)NC(=O)CC[C@H](NC(=O)CCCCCCCCCCCCCCCCCCC(=O)O)C(=O)O)C(=O)N[C@@H](CC(N)=O)C(=O)N[C@@H]([C@@H](C)O)C(=O)N[C@@H](C)C(=O)N[C@@H]([C@@H](C)O)C(=O)N1)[C@@H](C)O)C(C)C)C(=O)N[C@@H](CC(C)C)C(=O)N1CCC[C@H]1C(=O)N1CCC[C@H]1C(=O)N[C@H](C(=O)N[C@@H](CC(N)=O)C(=O)N[C@H](C(=O)NCC(=O)N[C@@H](CO)C(=O)N[C@@H](Cc1c[nH]cn1)C(=O)N[C@H](C(=O)N[C@@H](Cc1ccc(O)cc1)C(N)=O)[C@@H](C)O)C(C)C)[C@@H](C)O
B2: N-alpha-[(S)-4-Carboxy-4-(19-carboxynonadecanoylamino)butyryl]-[Arg1,Glu14,His17,Pro37]-pramlintide (peptide)
peptide: {C20 diacid-γGlu}-RCNTATCATQRLAEFLHHSSNNFGPILPPTNVGSNTP-NH2
modifications: disulfide 2-7
SMILES: CC[C@H](C)[C@H](NC(=O)[C@@H]1CCCN1C(=O)CNC(=O)[C@H](Cc1ccccc1)NC(=O)[C@H](CC(N)=O)NC(=O)[C@H](CC(N)=O)NC(=O)[C@H](CO)NC(=O)[C@H](CO)NC(=O)[C@H](Cc1c[nH]cn1)NC(=O)[C@H](Cc1c[nH]cn1)NC(=O)[C@H](CC(C)C)NC(=O)[C@H](Cc1ccccc1)NC(=O)[C@H](CCC(=O)O)NC(=O)[C@H](C)NC(=O)[C@H](CC(C)C)NC(=O)[C@H](CCCNC(=N)N)NC(=O)[C@H](CCC(N)=O)NC(=O)[C@@H](NC(=O)[C@H](C)NC(=O)[C@@H]1CSSC[C@H](NC(=O)[C@H](CCCNC(=N)N)NC(=O)CC[C@H](NC(=O)CCCCCCCCCCCCCCCCCCC(=O)O)C(=O)O)C(=O)N[C@@H](CC(N)=O)C(=O)N[C@@H]([C@@H](C)O)C(=O)N[C@@H](C)C(=O)N[C@@H]([C@@H](C)O)C(=O)N1)[C@@H](C)O)C(=O)N[C@@H](CC(C)C)C(=O)N1CCC[C@H]1C(=O)N1CCC[C@H]1C(=O)N[C@H](C(=O)N[C@@H](CC(N)=O)C(=O)N[C@H](C(=O)NCC(=O)N[C@@H](CO)C(=O)N[C@@H](CC(N)=O)C(=O)N[C@H](C(=O)N1CCC[C@H]1C(N)=O)[C@@H](C)O)C(C)C)[C@@H](C)O
B3: N-alpha-[(S)-4-Carboxy-4-(19-carboxynonadecanoylamino)butyryl]-Gly-[Arg1,Glu14,His17,Pro37]-pramlintide (peptide)
peptide: {C20 diacid-γGlu}-GRCNTATCATQRLAEFLHHSSNNFGPILPPTNVGSNTP-NH2
modifications: disulfide 3-8
SMILES: CC[C@H](C)[C@H](NC(=O)[C@@H]1CCCN1C(=O)CNC(=O)[C@H](Cc1ccccc1)NC(=O)[C@H](CC(N)=O)NC(=O)[C@H](CC(N)=O)NC(=O)[C@H](CO)NC(=O)[C@H](CO)NC(=O)[C@H](Cc1c[nH]cn1)NC(=O)[C@H](Cc1c[nH]cn1)NC(=O)[C@H](CC(C)C)NC(=O)[C@H](Cc1ccccc1)NC(=O)[C@H](CCC(=O)O)NC(=O)[C@H](C)NC(=O)[C@H](CC(C)C)NC(=O)[C@H](CCCNC(=N)N)NC(=O)[C@H](CCC(N)=O)NC(=O)[C@@H](NC(=O)[C@H](C)NC(=O)[C@@H]1CSSC[C@H](NC(=O)[C@H](CCCNC(=N)N)NC(=O)CNC(=O)CC[C@H](NC(=O)CCCCCCCCCCCCCCCCCCC(=O)O)C(=O)O)C(=O)N[C@@H](CC(N)=O)C(=O)N[C@@H]([C@@H](C)O)C(=O)N[C@@H](C)C(=O)N[C@@H]([C@@H](C)O)C(=O)N1)[C@@H](C)O)C(=O)N[C@@H](CC(C)C)C(=O)N1CCC[C@H]1C(=O)N1CCC[C@H]1C(=O)N[C@H](C(=O)N[C@@H](CC(N)=O)C(=O)N[C@H](C(=O)NCC(=O)N[C@@H](CO)C(=O)N[C@@H](CC(N)=O)C(=O)N[C@H](C(=O)N1CCC[C@H]1C(N)=O)[C@@H](C)O)C(C)C)[C@@H](C)O
B4: N-alpha-[2-(2-{2-[2-(2-{2-[(S)-4-Carboxy-4-(17-carboxyheptadecanoylamino)butyrylamino]ethoxy}ethoxy)acetylamino]ethoxy}ethoxy)acetyl]-D-Arg-D-Arg-[Orn1,Glu14,Hi … (peptide)
peptide: {C18 diacid-γGlu-AEEA-AEEA}-[dR][dR][Orn]CNTATCATQRLAEFLHRSSNNFGPILPPTNVGSNTY-NH2
modifications: disulfide 4-9
SMILES: CC[C@H](C)[C@H](NC(=O)[C@@H]1CCCN1C(=O)CNC(=O)[C@H](Cc1ccccc1)NC(=O)[C@H](CC(N)=O)NC(=O)[C@H](CC(N)=O)NC(=O)[C@H](CO)NC(=O)[C@H](CO)NC(=O)[C@H](CCCNC(=N)N)NC(=O)[C@H](Cc1c[nH]cn1)NC(=O)[C@H](CC(C)C)NC(=O)[C@H](Cc1ccccc1)NC(=O)[C@H](CCC(=O)O)NC(=O)[C@H](C)NC(=O)[C@H](CC(C)C)NC(=O)[C@H](CCCNC(=N)N)NC(=O)[C@H](CCC(N)=O)NC(=O)[C@@H](NC(=O)[C@H](C)NC(=O)[C@@H]1CSSC[C@H](NC(=O)[C@H](CCCN)NC(=O)[C@@H](CCCNC(=N)N)NC(=O)[C@@H](CCCNC(=N)N)NC(=O)COCCOCCNC(=O)COCCOCCNC(=O)CC[C@H](NC(=O)CCCCCCCCCCCCCCCCC(=O)O)C(=O)O)C(=O)N[C@@H](CC(N)=O)C(=O)N[C@@H]([C@@H](C)O)C(=O)N[C@@H](C)C(=O)N[C@@H]([C@@H](C)O)C(=O)N1)[C@@H](C)O)C(=O)N[C@@H](CC(C)C)C(=O)N1CCC[C@H]1C(=O)N1CCC[C@H]1C(=O)N[C@H](C(=O)N[C@@H](CC(N)=O)C(=O)N[C@H](C(=O)NCC(=O)N[C@@H](CO)C(=O)N[C@@H](CC(N)=O)C(=O)N[C@H](C(=O)N[C@@H](Cc1ccc(O)cc1)C(N)=O)[C@@H](C)O)C(C)C)[C@@H](C)O
B5: N-alpha-[(S)-4-Carboxy-4-(19-carboxynonadecanoylamino)butyryl]-[His1,Glu14,His17,Arg18]-pramlintide (peptide)
peptide: {C20 diacid-γGlu}-HCNTATCATQRLAEFLHRSSNNFGPILPPTNVGSNTY-NH2
modifications: disulfide 2-7
SMILES: CC[C@H](C)[C@H](NC(=O)[C@@H]1CCCN1C(=O)CNC(=O)[C@H](Cc1ccccc1)NC(=O)[C@H](CC(N)=O)NC(=O)[C@H](CC(N)=O)NC(=O)[C@H](CO)NC(=O)[C@H](CO)NC(=O)[C@H](CCCNC(=N)N)NC(=O)[C@H](Cc1c[nH]cn1)NC(=O)[C@H](CC(C)C)NC(=O)[C@H](Cc1ccccc1)NC(=O)[C@H](CCC(=O)O)NC(=O)[C@H](C)NC(=O)[C@H](CC(C)C)NC(=O)[C@H](CCCNC(=N)N)NC(=O)[C@H](CCC(N)=O)NC(=O)[C@@H](NC(=O)[C@H](C)NC(=O)[C@@H]1CSSC[C@H](NC(=O)[C@H](Cc2c[nH]cn2)NC(=O)CC[C@H](NC(=O)CCCCCCCCCCCCCCCCCCC(=O)O)C(=O)O)C(=O)N[C@@H](CC(N)=O)C(=O)N[C@@H]([C@@H](C)O)C(=O)N[C@@H](C)C(=O)N[C@@H]([C@@H](C)O)C(=O)N1)[C@@H](C)O)C(=O)N[C@@H](CC(C)C)C(=O)N1CCC[C@H]1C(=O)N1CCC[C@H]1C(=O)N[C@H](C(=O)N[C@@H](CC(N)=O)C(=O)N[C@H](C(=O)NCC(=O)N[C@@H](CO)C(=O)N[C@@H](CC(N)=O)C(=O)N[C@H](C(=O)N[C@@H](Cc1ccc(O)cc1)C(N)=O)[C@@H](C)O)C(C)C)[C@@H](C)O

Columns and labels:
Experiment in all cases: cell-based or functional assay
[1] = biological target: T1, rat calcitonin (a) receptor (rat, UniProt P32214 25-516)
T1 sequence (looked up): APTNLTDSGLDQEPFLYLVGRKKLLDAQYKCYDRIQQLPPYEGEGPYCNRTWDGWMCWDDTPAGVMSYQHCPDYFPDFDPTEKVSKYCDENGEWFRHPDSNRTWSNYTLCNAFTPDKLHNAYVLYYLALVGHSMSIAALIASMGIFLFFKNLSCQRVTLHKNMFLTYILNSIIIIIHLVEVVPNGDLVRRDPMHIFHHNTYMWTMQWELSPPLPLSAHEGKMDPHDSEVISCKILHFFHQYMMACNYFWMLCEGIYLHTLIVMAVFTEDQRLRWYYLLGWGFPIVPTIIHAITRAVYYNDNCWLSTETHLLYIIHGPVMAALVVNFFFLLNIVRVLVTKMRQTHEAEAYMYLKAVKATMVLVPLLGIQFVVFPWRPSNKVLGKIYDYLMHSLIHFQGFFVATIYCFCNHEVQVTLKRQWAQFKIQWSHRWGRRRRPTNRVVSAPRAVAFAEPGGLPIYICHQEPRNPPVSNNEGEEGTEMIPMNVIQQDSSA

[2] = biological target: T2, rat amylin 3(a) receptor (rat calcitonin(a) receptor + rat RAMP3) (rat, UniProt P32214 25-516; Q9JJ73 23-147)
T2 sequence (looked up) 1: T1 sequence (looked up)
T2 sequence (looked up) 2: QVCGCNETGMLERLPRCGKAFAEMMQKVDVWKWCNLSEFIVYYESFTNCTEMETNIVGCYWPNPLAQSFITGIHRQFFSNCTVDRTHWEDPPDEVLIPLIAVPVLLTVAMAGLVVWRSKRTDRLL

[3] = biological target: T3, human amylin 3(a) receptor (human calcitonin receptor + RAMP-3) (human, UniProt P30988 25-474; O60896 24-148)
T3 sequence (looked up) 1: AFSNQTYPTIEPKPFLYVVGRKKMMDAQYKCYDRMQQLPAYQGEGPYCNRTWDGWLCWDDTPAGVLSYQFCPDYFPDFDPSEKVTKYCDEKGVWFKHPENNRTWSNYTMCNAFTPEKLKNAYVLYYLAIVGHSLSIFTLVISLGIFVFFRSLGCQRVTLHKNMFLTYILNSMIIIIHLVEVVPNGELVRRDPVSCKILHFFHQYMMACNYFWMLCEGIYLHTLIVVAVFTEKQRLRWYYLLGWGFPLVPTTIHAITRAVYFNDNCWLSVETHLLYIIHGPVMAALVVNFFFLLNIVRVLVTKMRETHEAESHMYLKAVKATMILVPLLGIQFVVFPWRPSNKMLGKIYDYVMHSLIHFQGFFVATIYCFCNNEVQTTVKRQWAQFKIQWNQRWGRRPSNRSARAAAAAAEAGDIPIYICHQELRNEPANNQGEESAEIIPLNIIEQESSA
T3 sequence (looked up) 2: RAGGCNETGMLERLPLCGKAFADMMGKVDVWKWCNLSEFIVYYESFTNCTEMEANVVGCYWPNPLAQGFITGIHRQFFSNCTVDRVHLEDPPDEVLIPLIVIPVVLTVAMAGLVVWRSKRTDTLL

[4] = biological target: T4, human calcitonin (a) receptor (human, UniProt P30988 25-474)
T4 sequence (looked up): T3 sequence (looked up) 1

| Binder | CTa receptor rat EC50 [1] | Amylin receptor rat EC50 [2] | Amylin receptor human EC50 [3] | CTa receptor human EC50 [4] |
| --- | --- | --- | --- | --- |
| B1 | 215 pM | 138 pM | 136 pM | 180 pM |
| B2 | 58 pM | 88 pM | 43 pM | 55 pM |
| B3 | 44 pM | 75 pM | 51.5 pM | 45.5 pM |
| B4 | 2570 pM | 33 pM | 29.5 pM | 690 pM |
| B5 | 379 pM | 64.5 pM | 93.4 pM | 150 pM |
